{"source": "patent US20230227832", "about": "“ANTICANCER APTAMERS AND USES THEREOF” (CONSIGLIO NAZIONALE DELLE RICERCHE, published 2023)", "key": {"Serum albumin (HSA)": {"molecular_target": "Serum albumin (HSA) (Homo sapiens, UniProt P02768 P02768:25-609)", "sequence (P02768 25-609, one chain of several)": "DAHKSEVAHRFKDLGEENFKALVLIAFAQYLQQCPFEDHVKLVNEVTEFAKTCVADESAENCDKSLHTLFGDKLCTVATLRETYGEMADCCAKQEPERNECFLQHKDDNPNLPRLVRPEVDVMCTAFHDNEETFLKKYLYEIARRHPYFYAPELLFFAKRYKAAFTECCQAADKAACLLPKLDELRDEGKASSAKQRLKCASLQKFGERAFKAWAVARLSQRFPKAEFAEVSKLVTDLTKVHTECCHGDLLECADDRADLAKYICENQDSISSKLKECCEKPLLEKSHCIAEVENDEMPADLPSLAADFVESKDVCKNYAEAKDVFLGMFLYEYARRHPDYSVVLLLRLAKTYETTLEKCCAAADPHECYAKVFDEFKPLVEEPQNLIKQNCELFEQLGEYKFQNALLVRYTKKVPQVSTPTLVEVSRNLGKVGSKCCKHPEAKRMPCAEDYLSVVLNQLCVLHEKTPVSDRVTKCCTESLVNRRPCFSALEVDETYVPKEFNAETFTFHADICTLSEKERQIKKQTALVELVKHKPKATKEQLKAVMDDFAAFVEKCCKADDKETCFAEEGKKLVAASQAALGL", "assay": "ELONA; plate coated with 30 nM HSA; figure legend says bovine serum albumin", "details": "tags: Sigma Aldrich; label: biotin", "method": "For ELONA, wells of a 96-well High Binding microplate (Nunc MaxiSorp) were left uncoated or coated with exosomes (4 μg) o.n. All the subsequent steps were performed at room temperature. Following incubation, the plate was blocked with 300 μl 3% BSA (AppliChem) in PBS for 2 hours and incubated with 100 μL biotinylated aptamers (Tebu-bio), dissolved in PBS for 2 hours. Then the plate was washed three times with 300 μl PBS and streptavidin-HPR dissolved in 100 μl PBS (Sigma Aldrich) was added with dilution 1:10000. After 1 hour of incubation, the plate was washed three times before the addition of the TMB developing solution. The reaction was stopped with 0.16 M sulfuric acid and signal strength was analyzed by measuring absorbance at 450 nm with a microplate reader (Thermo Scientific).\nMDA-MB-231-derived exosomes and increasing concentrations of aptamer (ex-50.T or control) were used to calculate the binding affinity. The Kd was determined by means of GraphPad Prism. To verify the binding on human serum alumina (HSA), the plate coating was performed at 30 nM HSA (Sigma Aldrich)."}, "[1]": {"molecular_target": "T1, Gremlin-1 (GREM1), recombinant human (Homo sapiens, UniProt O60565 O60565:25-184)", "T1 sequence": "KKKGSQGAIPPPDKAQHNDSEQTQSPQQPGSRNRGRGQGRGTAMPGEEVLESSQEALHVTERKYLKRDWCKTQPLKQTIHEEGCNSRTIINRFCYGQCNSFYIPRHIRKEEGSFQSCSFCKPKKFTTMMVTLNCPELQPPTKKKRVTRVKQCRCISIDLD", "assay": "ELONA; room temperature, PBS; biotinylated aptamer, streptavidin-HRP", "details": "label: biotin"}}, "data": [{"binder": "UGUGGCAGUUAAGAAUAGAUCUUCGCUGCGAUU (ssRNA, 2'-F pyrimidines (2'-F-C, 2'-F-U; per library chemistry))", "note": "[ex-50.T]", "values": [{"measurement": "binding result", "setting": "Serum albumin (HSA)", "result": "no binding"}, {"measurement": "Kd", "setting": "[1]", "result": 37.7, "unit": "nM"}]}]}
